Results from publication PMC9785946, “Bioorthogonal Chemistry Approach for the Theranostics of GRPR-Expressing Cancers” (Pharmaceutics, 2022).
Read-outs that look alike come from different tables or passages of the source.

Key:
[1] = Procedure: The octanol–water partition coefficients (Po/w) of the radioconjugates (20 µL, typically 1 to 5 MBq) were determined by the “shake-flask” method, as previously described.
PC3 cells = assay: Cellular uptake, internalization and blocking assays in PC3 cells; format: cell-based, human; conditions: 37 °C
Procedure: The time-dependent accumulation of ^111In-conjugates in PC3 cells was evaluated according to a previously described procedure. Briefly, PC3 cells were incubated at 37 °C for 5 min to 4 h with about 7.4 kBq of the tested radioconjugates. To assess the surface binding, the cells were treated twice with glycine buffer (50 mM glycine-HCl/100 mM NaCl, pH 2.8). Then, the cells were lysed with NaOH 1 M (internalized radioconjugate). The activity in both cell surface-bound and internalized fractions was measured in a γ-counter and reported as a percentage of the total applied radioactivity. The total cellular uptake was calculated by the addition of the activities recovered from the surface binding and internalized fractions. Assays for each time point were performed in quadruplicate, and data were presented as average ± SD of typically three independent experiments.
To assess the specific GRPR-mediated cellular uptake and internalization of radioconjugates (receptor blocking studies), a similar study was performed in which cells were incubated with the [^111In]In-DOTA-Tz-TCO-PEG4-AR for 1, 2 and 4 h, with or without the GRPR agonist Tyr4-Bombesin (0.25 µg/0.5 mL/well).

[2] = Biodistribution of 111In-radioconjugates/radiocomplex in PC3 xenografts-bearing mice; format: in vivo, Balb/c-male nude mice; conditions: male, Balb/c nude, mouse, iv, total radioactivity, 1 h p.i.
Source text: (§1) Blood samples were taken by cardiac puncture at sacrifice.

[3] = system: PC3 xenografts-bearing mice; assay: as above; format: in vivo, Balb/c-male nude mice
Source text: as §1

in vitro = conditions: human, human serum
Procedure: The radiochemical stability of the radioconjugates was evaluated in vitro by the incubation of the four radioconjugates at 37 °C in PBS, in cell culture media (CCM) and human serum (HS) for 24 h, followed by HPLC analysis.

GRPR = system: GRPR; parameters: method as in PMID 22080443, PMID 9437737; conditions: literature value for reference peptide; ref [32],[39]; cited from earlier work
[4] = 1 h p.i., blocking (excess of agonist)

Compound: CC(C)C[C@H](NC(=O)C[C@H](O)[C@H](CC(C)C)NC(=O)[C@H](Cc1c[nH]cn1)NC(=O)CNC(=O)[C@@H](NC(=O)[C@H](C)NC(=O)[C@H](Cc1c[nH]c2ccccc12)NC(=O)[C@H](CCC(N)=O)NC(=O)[C@@H](Cc1ccccc1)NC(=O)CN1CCC(NC(=O)OC2CCCc3c(cnnc3-c3ccc(CNC(=O)CN4CCN(CC(=O)O)CCN(CC(=O)O)CCN(CC(=O)O)CC4)cc3)CC2)CC1)C(C)C)C(N)=O (some centres unmarked) [[^111In]In-DOTA-Tz-TCO-Pip-AR, metal not drawn]
- logP [1]: -1.28 ± 0.01
- Distribution of cell-associated activity (surface-bound vs internalized) (PC3 cells): almost all cell-associated activity corresponded to the membrane-bound fraction
- Maximum cellular uptake (PC3 cells; 5 min to 4 h): around 10 % of the total activity applied per million cells
- tissue uptake at 1 h ([2]; pancreas, read-out: Pancreas uptake): 2.8 ± 0.5 %ID/g
- tissue uptake at 1 h ([2]; tumor (PC3 xenograft), read-out: Tumor uptake): 3.2 ± 0.1 %ID/g
- Blood uptake ([3]; 1 h p.i.): 2. 63 % I.D./g
- Bone uptake ([3]; 1 h p.i.): 1. 2 % I.D./g
- Excretion ([3]; 1 h p.i.): 63. % I.D.
- Heart uptake ([3]; 1 h p.i.): 1. 06 % I.D./g
- Intestine uptake ([3]; 1 h p.i.): 0. 54 % I.D./g
- Kidneys uptake ([3]; 1 h p.i.): 9. 04 % I.D./g
- Liver uptake ([3]; 1 h p.i.): 3. 97 % I.D./g
- Lungs uptake ([3]; 1 h p.i.): 1. 74 % I.D./g
- Muscle uptake ([3]; 1 h p.i.): 0. 64 % I.D./g
- Pancreas uptake ([3]; 1 h p.i.): 3. 24 % I.D./g
- Spleen uptake ([3]; 1 h p.i.): 0. 98 % I.D./g
- Stomach uptake ([3]; 1 h p.i.): 0. 48 % I.D./g
- Tumor uptake ([3]; 1 h p.i.): 2. 79 % I.D./g
- Blood uptake [3, 4]: 3. 11 % I.D./g
- Bone uptake [3, 4]: 0. 97 % I.D./g
- Excretion [3, 4]: 60. % I.D.
- Heart uptake [3, 4]: 0. 6 % I.D./g
- Intestine uptake [3, 4]: 0. 4 % I.D./g
- Kidneys uptake [3, 4]: 7. 18 % I.D./g
- Liver uptake [3, 4]: 3. 28 % I.D./g
- Lungs uptake [3, 4]: 1. 44 % I.D./g
- Muscle uptake [3, 4]: 0. 63 % I.D./g
- Pancreas uptake [3, 4]: 1. 67 % I.D./g
- Spleen uptake [3, 4]: 0. 74 % I.D./g
- Stomach uptake [3, 4]: 0. 34 % I.D./g
- Tumor uptake [3, 4]: 1. 38 % I.D./g
- Blood uptake ([3]; 2 h p.i.): 0. 16 % I.D./g
- Bone uptake ([3]; 2 h p.i.): 0. 13 % I.D./g
- Excretion ([3]; 2 h p.i.): 91. % I.D.
- Heart uptake ([3]; 2 h p.i.): 0. 08 % I.D./g
- Intestine uptake ([3]; 2 h p.i.): 0. 09 % I.D./g
- Kidneys uptake ([3]; 2 h p.i.): 3. 09 % I.D./g
- Liver uptake ([3]; 2 h p.i.): 1. 02 % I.D./g
- Lungs uptake ([3]; 2 h p.i.): 0. 18 % I.D./g
- Muscle uptake ([3]; 2 h p.i.): 0. 05 % I.D./g
- Pancreas uptake ([3]; 2 h p.i.): 0. 28 % I.D./g
- Spleen uptake ([3]; 2 h p.i.): 0. 28 % I.D./g
- Stomach uptake ([3]; 2 h p.i.): 0. 05 % I.D./g
- Tumor uptake ([3]; 2 h p.i.): 1. 13 % I.D./g

Compound: CC(C)C[C@H](NC(=O)C[C@H](O)[C@H](CC(C)C)NC(=O)[C@H](Cc1c[nH]cn1)NC(=O)CNC(=O)[C@@H](NC(=O)[C@H](C)NC(=O)[C@H](Cc1c[nH]c2ccccc12)NC(=O)[C@H](CCC(N)=O)NC(=O)[C@@H](Cc1ccccc1)NC(=O)CCOCCOCCOCCOCCNC(=O)OC1CCCc2c(cnnc2-c2ccc(CNC(=O)CCC(C(=O)O)N3CCN(CC(=O)O)CCN(CC(=O)O)CCN(CC(=O)O)CC3)cc2)CC1)C(C)C)C(N)=O (some centres unmarked) [[^111In]In-DOTAGA-Tz-TCO-PEG4-AR, metal not drawn]
- logP [1]: -1.18 ± 0.05
- remaining at 24 h (in vitro): ~70%

Compound: D-Phe-Gln-Trp-Ala-Val-Gly-His-Sta-Leu-NH2 [AR]
- IC50 (GRPR): 2.9 ± 0.6 nM
